# Source: patent publication US20190211098A1 (Genentech, published 2019)
# T1: NPDC1-His (human, UniProt Q9NQX5 35-181, limits assumed)
# T1 construct: not shown: His tag
# T1 sequence: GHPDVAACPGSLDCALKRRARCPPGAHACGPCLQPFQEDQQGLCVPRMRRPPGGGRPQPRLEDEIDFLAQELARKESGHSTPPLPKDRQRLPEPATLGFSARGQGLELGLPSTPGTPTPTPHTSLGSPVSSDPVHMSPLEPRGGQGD
# T2: Full length myc-DDK tagged PIANP, expressed on transfected 293T cells (human, UniProt Q8IYJ0 32-282)
# T2 construct: Bought construct (Origene Cat. No. RC207868); also called myc-PIANP; C12orf53 (human); not shown: myc-DDK tag of the Origene construct RC207868
# T2 sequence: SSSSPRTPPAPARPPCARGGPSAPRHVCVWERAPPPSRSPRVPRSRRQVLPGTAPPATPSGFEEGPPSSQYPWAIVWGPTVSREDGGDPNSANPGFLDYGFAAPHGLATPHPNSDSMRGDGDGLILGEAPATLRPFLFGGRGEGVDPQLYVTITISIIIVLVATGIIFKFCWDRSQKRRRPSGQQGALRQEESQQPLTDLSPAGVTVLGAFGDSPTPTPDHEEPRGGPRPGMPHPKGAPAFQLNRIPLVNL
# How the values were obtained:
# [1] = target: T1, NPDC1-His; experiment: SPR, NPDC1-His binding to PILRA variant
# [2] = target: T2, Full length myc-DDK tagged PIANP, …; experiment: flow cytometry, soluble PILRA-mFc 50 ug/ml on ligand-transfected 293T cells
# [3] = target: T3, HSV-1 glycoprotein B, full length, expressed on transfected 293T cells (human herpes simplex virus type-1, UniProt P06437 31-904); experiment: as above
# T3 construct: Construct cloned from EF157316 (strain KOSc); also called HSV-1 gB; human herpesvirus 1 strain KOSc glycoprotein B (EF157316)
binder,measurement,setting,value
"PILRA G78 variant extracellular domain fused to murine IgG2a Fc (Fc fusion, Made in CHO cells, protein A/G purified; also called PILRA-mFc G78; PILRA-Fc G78; not shown: Fc region of murine IgG2a, C-terminal tag) QPSGSTGSGPSYLYGVTQPKHLSASMGGSVEIPFSFYYPWELATAPDVRISWRRGHFHGQSFYSTRPPSIHKDYVNRLFLNWTEGQKSGFLRISNLQKQDQSVYFCRVELDTRSSGRQQWQSIEGTKLSITQAVTTTTQRPSSMTTTWRLSSTTTTTGLRVTQGKRRSDSWHISLET",Kd,[1],16.8 nM
same,kon,[1],22000 M⁻¹ s⁻¹
same,binding result,[2],binds
same,binding result,[3],binds
